This note sets out measurements from paper PMC3816843.

Where two headings read alike, the source gives them in different places.

For series [1], the target named is T1, Factor XII (FXII, zymogen) (human, UniProt P00748 20-615).
T1 sequence: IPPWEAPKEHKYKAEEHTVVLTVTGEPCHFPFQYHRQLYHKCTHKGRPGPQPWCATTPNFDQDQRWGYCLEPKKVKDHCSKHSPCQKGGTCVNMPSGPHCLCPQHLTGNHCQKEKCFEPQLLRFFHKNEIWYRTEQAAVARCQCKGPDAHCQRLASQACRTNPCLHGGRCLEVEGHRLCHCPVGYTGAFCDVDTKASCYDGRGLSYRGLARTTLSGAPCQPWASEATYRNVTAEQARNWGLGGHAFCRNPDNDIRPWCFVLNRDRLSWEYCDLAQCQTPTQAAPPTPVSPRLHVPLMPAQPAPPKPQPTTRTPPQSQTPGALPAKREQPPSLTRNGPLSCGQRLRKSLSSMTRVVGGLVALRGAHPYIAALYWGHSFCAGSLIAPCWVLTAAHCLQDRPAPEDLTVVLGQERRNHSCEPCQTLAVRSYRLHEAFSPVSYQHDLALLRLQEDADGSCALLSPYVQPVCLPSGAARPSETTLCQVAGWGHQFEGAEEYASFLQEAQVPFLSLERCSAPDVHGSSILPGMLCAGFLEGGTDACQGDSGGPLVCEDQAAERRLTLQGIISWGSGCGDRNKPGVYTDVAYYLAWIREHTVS
As to the kind of experiment: double-filter nitrocellulose binding.

Series [2] concerns the target T2, Factor XIIa (alpha-FXIIa) (UniProt P00748;P00748 20-372;373-615).
T2 sequence 1: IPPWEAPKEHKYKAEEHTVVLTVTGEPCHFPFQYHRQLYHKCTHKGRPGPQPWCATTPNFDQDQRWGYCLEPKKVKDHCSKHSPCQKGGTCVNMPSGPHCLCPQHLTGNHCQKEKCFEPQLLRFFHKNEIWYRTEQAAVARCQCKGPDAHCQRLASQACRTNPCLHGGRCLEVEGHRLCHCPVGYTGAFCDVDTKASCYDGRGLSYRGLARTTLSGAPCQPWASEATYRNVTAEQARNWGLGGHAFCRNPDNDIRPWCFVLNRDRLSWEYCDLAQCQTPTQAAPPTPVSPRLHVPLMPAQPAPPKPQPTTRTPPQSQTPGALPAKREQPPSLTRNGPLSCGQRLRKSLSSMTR
T2 sequence 2: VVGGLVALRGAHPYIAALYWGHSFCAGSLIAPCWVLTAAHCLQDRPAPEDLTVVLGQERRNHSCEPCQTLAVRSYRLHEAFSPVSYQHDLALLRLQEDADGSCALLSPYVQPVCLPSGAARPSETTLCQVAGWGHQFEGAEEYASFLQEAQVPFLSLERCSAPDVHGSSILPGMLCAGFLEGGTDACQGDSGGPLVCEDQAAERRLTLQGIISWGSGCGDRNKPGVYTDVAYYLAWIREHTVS
As to the kind of experiment: double-filter nitrocellulose binding.

Series [3] concerns the target T2, Factor XIIa (alpha-FXIIa). Description: double-filter nitrocellulose binding. This is another data set of the same source.
In series [4] the target is T1, Factor XII (FXII, zymogen). As to the kind of experiment: double-filter nitrocellulose binding. The source holds these as a separate data set.
Series [5] deals with T1, Factor XII (FXII, zymogen). Description: nitrocellulose filter binding.
Series [6] deals with T2, Factor XIIa (alpha-FXIIa). As to the kind of experiment: nitrocellulose filter binding.

B1: R4cXII-1t (XNA)
RNA: GGCUCGGCUGCCAGCAGGUCACGAGUCGCAGCGACUCGCUGAGGAUCCGAG
modifications: all C and U are 2'-fluoro; A and G ribo
As a reminder, the Kd is the free concentration of one partner at which half of the binding sites on the other are occupied at equilibrium, for simple one-to-one binding. A higher Kd goes with a looser complex. With B1, the Kd was determined as 12.9 ± 2.06 nM in series [1] and 0.4 ± 0.02 nM in series [2].

B2: R4cXII-1 (XNA)
RNA: GGGAGGACGAUGCGGCCAAAUCUCGGCUGCCAGCAGGUCACGAGUCGCAAGAUAACAGACGACUCGCUGAGGAUCCGAGA
modifications: all C and U are 2'-fluoro; A and G ribo
With B2, the dissociation constant Kd was 0.5 ± 0.2 nM in series [3] and 8.9 ± 1 nM in series [4].

B3: scrambled control RNA (XNA)
RNA: GGGGCAGCCGUGGACCGACUGCCGCAUGCCAUUGACAGUCCGAUGCCAGGC
modifications: all C and U are 2'-fluoro; A and G ribo
As for B3, the binding result in series [5] and in series [6] was “no binding” throughout.
